Experimental data published in PMC8101487 (Molecular Biology of the Cell, 2021).

Molecular target: T1, Frq1 (S. cerevisiae, UniProt Q06389 1-190)
T1 sequence (looked up): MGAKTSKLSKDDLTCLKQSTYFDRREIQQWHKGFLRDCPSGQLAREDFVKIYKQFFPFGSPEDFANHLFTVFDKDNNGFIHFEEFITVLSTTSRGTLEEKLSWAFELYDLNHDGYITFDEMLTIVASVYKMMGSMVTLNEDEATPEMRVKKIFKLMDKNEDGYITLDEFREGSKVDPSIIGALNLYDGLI
Test: SEC

B1: Pik1(121-174) peptide (peptide, UniProt P39104 121-174, looked up)
peptide: ASYGFQVARRVLNNLQTNLFNTSSGSDKNVKIHENVAPALVLSSMIMSAIAFPQ
binding result: binds
